This test concerns the target streptavidin, P22629. Kind of test: SPR, BIAcore X100, streptavidin on CM5 chip, peptide in solution.
Sequence of streptavidin, P22629 (P22629 37-163 limits assumed): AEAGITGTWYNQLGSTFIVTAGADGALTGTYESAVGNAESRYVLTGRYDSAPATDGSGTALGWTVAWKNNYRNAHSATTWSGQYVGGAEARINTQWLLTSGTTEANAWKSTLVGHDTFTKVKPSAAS
H-LYDHPQNGGQ-OH returned a Kd of 100 µM.
For NQPWQ (modifications not checked) [head-to-tail cyclic NQpWQ peptide], the Kd is 61.3 µM.
As for H-QNDHPQNGGQ-OH, the Kd was found to be 320 µM.
With LYDHPQNGGQ (modifications not checked) the figure was 9.4 µM; with QNDHPQNGGQ (modifications not checked), 10.8 µM.

For the origin of these results see patent US20160367961A1, “METHOD AND COMPOSITION FOR PEPTIDE C[…] PROTEASE TREATMENT” (Roche Sequencing Solutions, Inc., priority 2015, published 2016).
